Results taken from patent US10017734B2, “Method for producing dopaminergic neurons” (TAKEDA PHARMACEUTICAL COMPANY LIMITED, priority 2013, dated 2018).

Experiments:
[1] = tested on: floor plate cells induced from human iPS cell (253G1 strain, 201B7 strain); assay: Study of various MEK inhibitors (including FGFR inhibitor): NURR1 expression by quantitative RT-PCR on day 45; type: cell-based; settings: for expression of NURR1: 253G1 strain, added to ascorbic acid and dbcAMP, 3 μM PD0325901, 3 μM PD184352, 10 μM SU5402
Text: Whether midbrain dopaminergic neuron can be induced in a medium containing any of PD184352 (Axon MedChem), SU5402 (FGF receptor (FGFR) inhibitor, Wako Pure Chemical Industries, Ltd.) and PD173074 (FGFR inhibitor, Axon MedChem) instead of PD0325901 in the aforementioned (A) Neuro/B27 was studied.
Floor plate cells were induced by a method similar to the methods described in Reference Examples 1 to 3, the medium was exchanged with Neuro/B27 added with (1) 3 factors of ascorbic acid, dbcAMP and PD0325901, (2) 2 factors of ascorbic acid and dbcAMP, (3) ascorbic acid, dbcAMP and 3 μM PD184352, (4) ascorbic acid, dbcAMP and 10 μM SU5402, or (5) ascorbic acid, dbcAMP and 0.1 μM PD173074 on day 13 of culture, and the cells were cultured at 37° C. under 5% CO2 for not less than 30 days. The medium was exchanged every 3-4 days during the above-mentioned culture periods. On day 45 of culture, the cells were recovered, and expression variation of NURR1 was examined. In 253G1 strain, the expression of NURR1 was elevated by the addition of PD0325901, PD184352 or SU5402 and, in 201B7 strain, the expression of NURR1 was elevated by the addition of all 4 kinds.

[2] = tested on: human iPS cell (253G1 strain, 201B7 strain); assay: Floor plate cell marker expression by quantitative RT-PCR on day 13 of culture; type: cell-based; settings: FGF8 added in addition to the 5 kinds (All+FGF8)
Protocol: The medium after preculture as described in the above-mentioned Reference Example 2 was exchanged with a differentiation induction medium containing factors inducing differentiation into floor plate cell (LDN193189 (0.5 μM, Axon MedChem B.V.), SB431542 (10 μM, Wako Pure Chemical Industries, Ltd.), purmorphamine (0.5 μM, Merck), SHH (200 ng/ml, R&D systems) and CHIR99021 (1 μM, Axon MedChem)) (day 0 of culture), and the cells were cultured at 37° C. under 5% CO2 for 5 days. Then, the medium was exchanged with a differentiation induction medium containing 0.5 μM LDN193189 and 1 μM CHIR99021, and the cells were cultured at 37° C. under 5% CO2 for 5-8 days (total 10-13 days). […]
To examine expression variation of floor plate cell marker due to the presence or absence of factors inducing differentiation into floor plate cell (LDN193189, SB431542, purmorphamine, SHH and CHIR99021), the cells on day 13 of culture were recovered, and total RNA fraction was purified using RNeasy (Qiagen). Using PrimeScript RT reagent kit (Takara Bio Inc.), cDNA was synthesized, quantitative RT-PCR was performed, and the gene expression levels of floor plate cell markers FOXA2 and LMX1A were measured. […]

[3] = tested on: TH/hNuc double positive cells in the mouse striatum; assay: Transplantation of day 26 cells to mouse striatum, tissue staining for TH and hNuc; type: in vivo, NOD SCID mice
Protocol: Midbrain floor plate cells were induced by a method similar to the methods described in Reference Examples 1 to 3, the medium was exchanged with Neuro/B27 added with 0.1 mM ascorbic acid, 0.5 mM dbcAMP, 3 μM PD0325901 or 0.1 mM ascorbic acid, 0.5 mM dbcAMP, 3 μM PD0325901, 20 ng/ml activin A on day 12 of culture, and the cells were cultured for 14 days more (total 26 days). After culture, the cells were washed with PBS, and dispersed by treating with TrypLE Express (Life Technologies) at 37° C. for 10 min. The cell concentration was adjusted to 1×10^5 cells/μl with Neuro/B27 medium, and the cells were maintained on ice until transplantation.
A transplantation experiment to mouse striatum was performed as follows. Twelve 8-week-old male NOD SCID mice (Charles River Laboratories Japan, Inc.) were divided into a control group and an activin A group (6 mice per each group). The cells cultured with the addition of ascorbic acid, dbcAMP, PD0325901 were used for transplantation to the control group, and the cells cultured with the addition of ascorbic acid, dbcAMP, PD0325901, activin A were used for transplantation to the activin A group. The hair of the head surgical field of the mice was shaved under pentobarbital (50 mg/kg, ip) anesthesia, and isodine was applied. Several minutes later, the skin was disinfected by wiping off isodine with Menban immersed in 0.1% Osvan aqueous solution, and the mice were fixed on a brain stereotaxis apparatus (David Kopf, David Kopf Instruments in USA). The scalp was incised from the midline, periosteum was detached, and Bregma and Lambda of the mice were exposed. “The mouse brain in stereotaxic coordinates” was referred to for the coordinate of the striatum (AP: +0.5 mm; ML: +1.8 mm), a hole was made in the cranial bone with an electric drill (ϕ0.5 mm), Hamilton syringe was inserted from the surface of the cranial bone to the depth DV: −3.5 mm, and the cells (1×10^5 cells/μl, 2 μl) were transplanted over 10 min After transplantation, the incision on the head was sutured and the mice were allowed to recover. […]

[4] = tested on: floor plate cells induced from human iPS cell (253G1 strain, 201B7 strain); assay: TH and NURR1 expression by quantitative RT-PCR on day 26 of culture; type: cell-based
Protocol: Floor plate cells were induced by a method similar to the methods described in Reference Examples 1 to 3, the medium was exchanged with Neuro/B27 added with one or more kinds of 0.1 mM ascorbic acid, 0.5 mM dbcAMP, 3 μM PD0325901, and 20 ng/ml activin A (R&D), or Neuro/B27 without addition of ascorbic acid, dbcAMP, PD0325901, and activin A as a control on day 12 of culture, and the cells were cultured for 14 days more (total 26 days). The cells after culture were recovered, and the expression variation of TH and NURR1 was examined by a method similar to Reference Example 3. […] On the other hand, when ascorbic acid, dbcAMP and PD0325901 were added, the expression level was lower at the time point of day 26 of culture than the addition of ascorbic acid, dbcAMP and activin A.

For Cc1c[nH]c(C=C2C(=O)Nc3ccccc32)c1CCC(=O)O [SU5402, 3-[4-methyl-2-(2-oxo-1,2-dihydro-indol-3-ylidenemethyl)-1H-pyrrol-3-yl]-propanoic acid], the “expression of NURR1” value [1] was “elevated”.

With CCCS(=O)(=O)Nc1ccc(F)c(C(=O)c2c[nH]c3ncc(-c4ccc(Cl)cc4)cc23)c1F [PLX4032] the “effect on expression of NURR1” value ([1]; strain and concentration not given) was “no effect”.

In the case of O=C(NOCC1CC1)c1ccc(F)c(F)c1Nc1ccc(I)cc1Cl [PD184352, 2-(2-chloro-4-iodophenylamino)-N-cyclopropylmethoxy-3,4-difluorobenzamide], the “expression of NURR1” value [1] is reported as “elevated”.

B1: FGF8: growth factor, fibroblast growth factor-8 (protein, UniProt P55075 23-233, looked up)
Fibroblast growth factor 8: QEGPGRGPALGRELASLFRAGREPQGVSQQHVREQSLVTDQLSRRLIRTYQLYSRTSGKHVQVLANKRINAMAEDGDPFAKLIVETDTFGSRVRVRGAETGLYICMNKKGKLIAKSNGKGKDCVFTEIVLENNYTALQNAKYEGWYMAFTRKGRPRKGSKTRQHQREVHFMKRLPRGHHTTEQSLRFEFLNYPPFTRSLRGSQRTWAPEPR
For B1, the “expression of FOXA2 and LMX1A” value [2] was “scarcely changed”.

B2: activin A: peptidic cell proliferation and differentiation factor belonging to the TGFβ family; activator of activin receptor-like kinase-4,7 (protein, UniProt P08476 311-426, looked up)
Inhibin beta A chain: GLECDGKVNICCKKQFFVSFKDIGWNDWIIAPSGYHANYCEGECPSHIAGTSGSSLSFHSTVINHYRMRGHSPFANLKSCCVPTKLRPMSMLYYDDGQNIIKKDIQNMIVEECGCS
modifications: Inhibin beta A chain
With B2 the “TH/hNuc double positive cells” value ([3]; 4 weeks after transplantation to mouse striatum) was “not less than 40%”, the “TH/hNuc double positive cells” value ([3]; 8 weeks after transplantation to mouse striatum) was “not less than 50%” and the “TH/hNuc double positive cells, change as compared to 8 weeks” value ([3]; 12 weeks after transplantation to mouse striatum) was “did not show a remarkable increase”. For the same molecule, the “expression of TH and NURR1” value ([4]; 20 ng/ml activin A alone) was “scarcely elevated” and the “expression of TH and NURR1” value ([4]; activin A added together with ascorbic acid and dbcAMP) was “increased remarkably”.
